Measurements reported in the nanobody polyreactivity screen of Harvey et al. (2022).

Assay: yeast display, Sf9 membrane polyspecificity reagent, FACS + sequencing; frameworks hold sequencing errors
Method in brief: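 Galactose induction of a Saccharomyces cerevisiae BJ5465 synthetic nanobody display library ran 36–48 hours. The cells were then stained for 1 hour at 4 °C with 10% biotinylated, detergent-solubilized Sf9 membrane reagent, pulled down on streptavidin microbeads and FACS-sorted into low and high (top ~1%) gates on expression and reagent-binding fluorescence. Labels for polyreactivity follow the gate of origin.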

| Sequence | polyreactivity (PSR sort gate) |
| --- | --- |
| QVQLVESGGGLVQAGGSLRLSCAASGYILYGNTMGWYRQAPGKERELVAAISGGGSTNYADSVKGRFTISRDNAKNTVYLQMNSLKPEETAVYYCAVDVKIGTDFIGVVIPGDYWGQGTQVTVSS | low polyreactivity |
| QVQLVESGGGLVQAGGSLRLSCAASGRILTGYAMGLYRQAPGKEREFVASITGSGAITNYADSVKGRFTITRDNAKNTVYLQMNSLKPEDTAVYYCARGYGWWLGYSSRYDYWGQGTQVTVSS | high polyreactivity |
| QVQLVESWGGLVQAGGSLRLSCAASGFTFAYNTMGWYRQAPGTEREWVAAISSSGGSTYYADSVKGRFTISRDNAKNTVYLQMNSLKPEDTAVYDCAAPFWRSFWASDYCGQGTQVTVSS | high polyreactivity |
| QVQLVESGGGLVQAGGSLRLSCAASGFTFGANDMGWYRQAPGKERELVATISSSGGTTYYADSVKGRFTISRDNAKNTVYLQMNSLKPEDTAVYYCAAKGLFTGRVSRYADDHCGQGTQVTVSS | low polyreactivity |
| QVQLVESGGGLVQAGGSLRLSCAASGSIFGWNAMGWYRQAPGKERELVAAITRRGDSTYYADSVKGRFTISRDNAKNTVYLQMNSLKPEDTAVYYCAKRGTGVYRVDYGYWGQGTQVTVSS | high polyreactivity |
| QVQLVESGGGLVQAGGSLRLSCAASGGIFVSYAMGWYRQAPGKERELVAAITSGGGTSYADSVKGRFTISRDNAKNTVYLQLTSLKPEDTAVYYCAARFLWSVFGRKGGYWGQGTQVTVSS | low polyreactivity |
| QVQLVESGGGLVQAGGSLRLSCDASGFTFRVYAMGWYRQAPGKEREFVASIRSNDGRTYYADSVKGRFTISRDNAKNTVYLQLNSLKPEDTAVYYCAARYSPRGKRYDYWGQGTQVTVSS | high polyreactivity |
| KDQLVESGGGLVQAGGSLRLSCAASGRTFSHYTMGWYIQAPGKERELVARITRRGGRTYYADSVKGRFTISRDDAKNTVFLQMISLKPEDSAVYFCANEPWGYTRYTTYDYWGQGTQVTVSS | high polyreactivity |
| QVQLVESGGGLVQAGGSLRLSCAASGTTFRANAMGWYRQAPAKERELVAAITSGGSTNYADSVKGRFTISRDNAKNTVYLQMNSLKPEDTAVYYCAKETYYGTDNFGQVGGEMDYWGQGNQVTVSS | low polyreactivity |
| QVQHVESGGGLVQAGGSLRLSCASSGFIFYKYVMGWYRQAPGKERELVAAINWSGGSTYYADSVKGRFTISRDNAKNTVYLQMNSLKPDVTAVYYCAALSQYRYDYWGQGTQVTVSS | high polyreactivity |
| QVQLVESGGGLVQAGGSLRLSCAASGSTFGIYARGGYRQAPGNERELVAAISWRGGRTYYADSVKGRFTISRDNAKNTVYLQMNSLKPEDTAVYYCAADLAVYYIFLALEFNYWGQGTQVTVSS | low polyreactivity |
| QVQLVESGGGLVQAGGSLRLSCAASGGTFYANAMGWYRQAPGKERELVATITSSSGSTSYADSVKGRFTISRDNAKNTVYLQMNSLKPEDTAVYYCAKDSHAQGPYRYKHYHHTGDYWGQGTQVTVSS | low polyreactivity |
| QVQLVESGGGLVQAGGSIRLSCAASGRIFGAYAIGWYRQAPGKERELVADIRTTGSTNYADSVKGRFTISRDNAKNTVYLQMNSLKPEDTAVYYCAARWRSRRFGSGFEYWGQGTQVTVSS | high polyreactivity |
| QVQIVESGGGLDQAGGSLRLSCAASGRTLGYYAMVWYRQAPGIERELVAAISRTGGRTYYADSVKGRFTISLDNAKNTVYLQMNSLKPEDTAVYYCAVVAPDGYDFYYWGQGTQVTVSS | high polyreactivity |
| QVQLVESGGGLVQAGGSLRLSCAASGSTFVSNAMGWYRQAPGKERELVAGITFSGGSTYYADSVKGRFTISRDNAKNTVYLQMNSLKPEDTAVYYCAAEFHWWYAGYDYGYWGQGTQVTASS | low polyreactivity |
| QVQLVESGGGLVQAGGSLRLSCAASGRIFYLNAMGWYRQAPGKERELVAGITNSTTGTYYADSVKGRFTISRDNAKNTVYLQMNCLKPEDTAVYYCITDVAYEEPVETYDYWGQGTQVTVSS | low polyreactivity |
| QVQLVESGGGLVQAGGSLRLSCAASGSTFYYYAMGWYRPAPGKERELVATIDSGTSTYYADSVKGRFTISRDNAKNTVYFQMNSLKPEDTAVYYCAAKTWSWSYGYNYWGQGTLVTVSS | low polyreactivity |
| QVQLVESGGGLVQAGGSLGLSCAASGRMFGYYTLGWYRQAPGKERELVAAITSSGGRTYYADSVKGRFTISRDYAKNTVYLQMNSLKPEDTAVYYCAADVEWTSRGSYYRYYYWGQGTQVTVSS | low polyreactivity |
| QVQLVESGGGLVQAGGSLRLSCAASGSNFNYYVMGGYRQAPGKERELVAAISRSGTSTYYADSVKGRFTISRDNAKNTVYLQMNRLKPEDSSVYYCAARVSHKYRTYYYWGQGTQVTVSS | high polyreactivity |
| QVQLVESGGGLVQAGGSLRLSCAASGSIFPPNAMGWSRQAPGKERELVAAISFSGGTSTYYADSVKGRFTISRDNAKNTVYLQMNSLKPEDTAVYYCAARKTTRRYHYDYWGQGTQVTVSS | high polyreactivity |
| QVQLVESGGGLVQAGGSLRLSCAASGFTCASNDMGWSRQAPGKERELVAAITKGGGRTYYADSVKGRFTISRDNAKNTVYLQMNSLKPEDTAVYYCAARQLIKYDYWGPGTQVTVSS | low polyreactivity |
| QVQLVESGGGLVQAGGSLRLSCAASGGTQVKYAMGWYRQAPGKERELVAAISRSTGNTYYADSVKGRFTISRDNAKNTVYLQMNSLKPEDTAVYYCAALKYTVGGKFGYWGQGTQVTVSS | high polyreactivity |

| Sequence | polyreactivity (PSR sort gate) |
| --- | --- |
| QVQLVESGGGLVQAVGSLRLSCAASASIFRNNAMGWYRQAPGKERELVASISSSGDNTNYADSVKGRFTISRDNAKNTVYLQMNSLKPEDTAVYYCAAANKGPDQADYHYDQWGQGTQVTVSS | low polyreactivity |
| QVQLVESGGGLVQAGGSLRLSCAASGRISVNYAMGWYRQAPGKERELVAGITSRGGSTYYADSVKGRFTISRDNAKNTVYLQMNSLKPEDTAVYYCAARWGGLWYYYWGQGTQVTVSS | high polyreactivity |
| QVQLVESGGGLVQAGGSLRLSCAASGRIFDAYAMGWYRQAPGKERELLAAITQSGGSTFYADSVKGRFTISRDNAKNTVYLQMNSLKPEDTAVYYCAKDKFWFRVDGHYRMDYWGQGTQVTVSS | low polyreactivity |
| QVQLVESGGGLVQAGGSLRLSCAASGSTFVVYAMGWYRQAPGKERELVASISSGDSTTYADSVKGRFTISRDNAKNTVYLQMNSLKPEDTAVYYCNADYAYYLDVYSPYDSWGQGTQVTVSS | low polyreactivity |
| QVQLVESGGGLVQAGGSLRLSCAASGFTFNGYAMGWYRQAPGKERELVAGITRRGGITYYADSVKGRFTISRDNAKNTVYLQMNSLNPEDTAVYYCNAYPRYIIPSIVNGYNYWGQGTQVTVSS | high polyreactivity |
| QVQLVESGGGLVQAGGSLRLSCAASGSTFYGYTMGWYRQAPGKERELVAAISSSGSSTYYADSVKGRFTISRDNAKNTVYLQMNSLKPEDTAVYYCAAATRVPGHGSTSYYYWGQGTQVTVSS | high polyreactivity |
| QVQLVESGGGLVQAGGRLRLSCAASGSIFRYYAMGWYRQATGKERELVAAITRGDSTNYADSVKGRFTISRDNAKNTVYLQMNSLKPEDTAVYYCAASRYHGWYVKMGYWGQGTQVTVSS | high polyreactivity |
| QVQLQESGGGLVQAGGSPRLSCAASDNIFPDSGMCWYRQAPGKERELVATIGFGATRNYADSVKGRFTISRDNAKNTVYLQMNSLQPEDTAVYYCAADPLNYQYFCYWGQGTQVTVSS | low polyreactivity |
| QVQLVESGGGLVQAGGSLRLSCAASGRTFGYNVMGWYRQAPGKARELVAGIRYSGGSTYYADSVKGRFTISRDNAKNTVYLQMNSLKPEDTAVYYCHAVDRNQYDYWGQGTQVTVSS | high polyreactivity |
| QVQLVESGGGLVQAGGSLRLSCAASGRTFSSNAMGWYRQAPGKERELVASISFRGGRTYYADSVKGRFTISRDNAKNTVYLQMNSLKPVDTAVYYCATAYYYFSPSRADGEYWGQGTQVTVSS | high polyreactivity |
| QVQLVESGGGLVQAGGSLRLSCAASGITFRSYAMGWYRQAPGKERELVAAISSTGRTYYADSVKGRFTISRDNAKNTVYLQMNSLKPEDTAVYYCATGGQGAFWGQGTQVTVSS | high polyreactivity |
| QVQLVESGGGLVQAGGSLRLSCAASGRIFGYTMGWYRPAPGKERELVAAISKSGGSTYYADSVKGRFTISRDNAKNTVYLQMNSLKPEDTAVYYCNKPQRILYDYWGQGTQVTVSS | high polyreactivity |
| QVQLVESGRRLVQAGGSLRLSCAASGRIFPGNAMGWYRQAPGKERELVAAMSYGGGSTYYADSVKGRFTISRDNAKNTVYLQMNSLKPEDTAVYYCAARYRGSRFDYWGQGTQVTVSS | high polyreactivity |
| QVQHVESGGGLVQAGGSLRLSCAASGSTFGGYTMGWSRQAPGTERELVASIRSGGSTYYADSVKGRFTISRDNAKNTVYLQMNSLKPEVTAVYYCAADGRRDRDYWGQGTQVTVSS | high polyreactivity |
| QVQLVESGGGLVQAGGSLRLSSAASGSIFYGYAMGWYRQAPGKERELVATISWSAGSTYYADSVKGRFTISRDNAKTTVYLQMNSLKPEDTAVYYCATRVFTSSYRYRYGYWGQGTQVTVSS | high polyreactivity |
| QVQLVESGGGLVQAGGSLRLSCAASGRILYRNAMGWYRQATGKERELVAAITTRGTSTYYADSVKGRFTISRDNAKNTVYLQMNSLKPEDTSVYYCAADSWFSYRGPLYYWGQGTKVTVSS | high polyreactivity |
| QVQLVESGGGLVQAGGSLRLSCAASGRNFRLNAMGWYRQAPGKERDLVARITGSYGGSTYYADSVKGRFTISRDNAKNTVSLQMISLKPEDSAGYYCADDGTGSYKGYYWGLGTQVTVSS | high polyreactivity |
| QVQLVESGGGLVQAGGSLRLSCAASGRIFVPNAMGWYRQAPGKERELVAAITRSGSTYYADSVKGRFTISRDNAKNTVYLQMNSLKPEDTAVYYCAADYYYPSQMDSWGQGTQVTVSS | low polyreactivity |
| QVQLVESGGGLVQAGGSLRLSCAASGSTFSRYAMGWYRQAPGKERELVAAITSSGGSSYYADSVKGRFTISRDNAKNTVYLQMNSLKPEDTAVYYCAASYQVRYDYWGQGTQVTVSS | high polyreactivity |
| QVQLVESGGGLVQAGGSLRLSCAASGFTFYGYAMGWYRQAPGKERELVAAISTRGSRTYYADSVKGRFTISRDNAKNTVYLQMNSLKPEDTAVYYCARRRGPSYGLDYWGQGTQVTVSS | high polyreactivity |
| QVQLVESGGGLVQAGGSLRLSCAASGRTFDYNAMVWYRQAPGKERELVAAISGSGTRTFYADSVKGRFTISRDNAKNTVYLLMNSLKPVDTAVYYCAASHGWSKSIFYYWGQGTQVTVSS | high polyreactivity |
